Key:
[1] = biological target: Gαq/i (chimera between Gαq and Gαi), as used in fluorescence polarisation; test: fluorescence polarisation; direct binding of HTH peptide and Gαq/i; conditions not given
[2] = biological target: HTH peptide of PLC-β3 with the mutations I860A and V866W, expressed on the surface of yeast; test: flow cytometry on cells; yeast surface titration: yeast displaying the construct, biotinylated Gαq/i 1 nM to 7.5 μM with AlF4-, 1 h on ice, streptavidin-phycoerythrin; 10 mM HEPES pH 8.0, 150 mM NaCl, 10 mM MgCl2, 30 μM AlCl3, 10 mM NaF, 0.1% BSA; one-step isotherm, apparent KD
[3] = biological target: 171L-graft, displayed on yeast (phage T4) (UniProt P00720); test: as above
[4] = biological target: 1EBB-graft, displayed on yeast (Geobacillus stearothermophilus); test: as above

Row | Kd [1] [nM] | fold increase of affinity against the original HTH peptide [1] [fold] | Substance | Kd [2] [nM] | Kd [3] [nM] | Kd [4] [nM]
1 | 400 |  | TAMRA-labeled HTH peptide (I860A) derived from PLC-β3 |  |  | 
2 | 290 | > 14 | soluble HTH peptide of PLC-β3 with the V866W mutation |  |  | 
3 |  |  | biotinylated Gαq/i (chimera between Gαq and Gαi, with C-terminal avitag) | 400 | 1700 | 2000
